Experimental data published in patent US9057727B2, “Screening methods using G-protein coupled receptors and related compositions” (The General Hospital Corporation, priority 2007, dated 2015).
Ends that are not written are not given here.

Key:
[1] = system: MC3T3-E1 cells; experiment: cAMP screen of EALK-PTHrP(1-31)/(1-34) variants (% parent); type: cell-based; conditions: parent E18,A22,L25,K26-PTHrP(1-31)OH
From the text: FIGS. 32A and 32B are graphs showing the effects of amino acid substitutions in the 29-31 region of EALK-PTHrP(1-31) (SEQ ID NO:94) (FIG. 32A) and the 29-33 region of EALK-PTHrP(1-34) (SEQ ID NO:112) (FIG. 32B) on induction of cAMP activity in MC3T3-E1 cells. Substitutions at position 29 for EALK-PTHrP(1-31) were G^29 to S^29 (SEQ ID NO:95-96), L^29 (SEQ ID NO:176), and N^29 to K^29 (SEQ ID NO:97-101). Substitutions at position 30 for EALK-PTHrP(1-31) were G^30 to D^30 (SEQ ID NO:102-106), W^30 (SEQ ID NO:177), and K^30 (SEQ ID NO:107). […] Substitutions for EALK-PTHrP(1-34) A^30 to A^33 (SEQ ID NO:113-116) and EALK-PTHrP(1-28)/PTH(29-34) (SEQ ID NO:117).
To optimize the activity of the EALK-PTHrP peptides, we generated EALK-PTHrP([…]) and PTHrP(1-34) variants with substitutions in the 29-33 region. In the 1-30 scaffold, Gly, Ser, Leu, Asn, Gln, Trp, Glu, and Lys were substituted at position 29; Gly, Ser, Leu, Asn, Asp, Trp, and Lys were substituted at position 30; and Ser, Leu, Asn, Val, Trp, Glu, and Lys were substituted at position 31. […] A predicted advantage of these longer-length peptides, relative to the PTHrP(1-30) scaffold, is that they will have longer a longer half-life in circulation due to slower clearance. The C-terminal substitutions were thus designed to provide the added chain length, but to avoid increasing R^0 binding affinity, which occurs when the native PTHrP(29-34) region (SEQ ID NO:186) is installed. These peptides were tested for cAMP activity in MC3T3-E1 cells.

[2] = biological target: T1, human PTHR, G protein-uncoupled conformation (R^0) (Homo sapiens, UniProt Q03431); experiment: Competition binding to R0 conformation of hPTHR (COS-7 membranes, GTPγS, 125I-PTH(1-34) tracer); conditions: parent PTHrP(1-28)NH
T1 construct: expressed in transfected cells; host or cells: COS-7, transient (Fugene-6)
T1 sequence (Q03431 27-593): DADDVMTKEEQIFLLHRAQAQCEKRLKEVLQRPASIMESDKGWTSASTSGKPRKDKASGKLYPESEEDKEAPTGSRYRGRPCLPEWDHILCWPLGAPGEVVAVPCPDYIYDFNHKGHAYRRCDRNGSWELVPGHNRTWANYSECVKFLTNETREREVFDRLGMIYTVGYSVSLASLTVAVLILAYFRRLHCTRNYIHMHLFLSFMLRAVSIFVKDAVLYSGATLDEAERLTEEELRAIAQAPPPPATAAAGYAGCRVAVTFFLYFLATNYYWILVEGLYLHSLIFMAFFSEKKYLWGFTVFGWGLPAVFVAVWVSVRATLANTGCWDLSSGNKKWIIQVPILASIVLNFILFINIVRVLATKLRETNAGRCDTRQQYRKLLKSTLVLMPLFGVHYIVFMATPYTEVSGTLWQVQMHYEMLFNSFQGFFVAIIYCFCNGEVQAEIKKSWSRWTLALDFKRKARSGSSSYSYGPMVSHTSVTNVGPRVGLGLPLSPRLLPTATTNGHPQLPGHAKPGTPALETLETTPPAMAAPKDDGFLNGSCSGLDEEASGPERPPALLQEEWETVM
Procedure: Membranes were prepared from COS-7 cells transfected with the hPTHR alone. GTPγS ([…]) was added to the binding reactions so as to functionally uncouple receptor-heterotrimeric G protein complexes, thus enriching for the R^0 (and R) conformations, relative to RG.
Reactions contained a total membrane protein concentration of 20 to 100 μg/mL, and a total radioactivity concentration of approximately 150,000 cpm/ml. Unlabeled peptide ligands and/or GTPγS (Sigma-Aldrich Inc. St. Louis, Mo.) were added to the reactions as indicated.
Membranes, tracer radioligand, and various concentrations of unlabeled ligands and/or GTPγS were incubated in the wells for 90 minutes, following which, the reaction plates were processed by rapid vacuum filtration to separate bound from free radioligand, as described above. […] For both radioligands, the non-specific binding was determined in reactions containing a saturating concentration of the unlabeled analog of the radioligand. The specifically bound radioactivity was calculated as a percent of the radioactivity specifically bound in the absence of a competing ligand or GTPγS.
To assess the capacities of various unlabeled peptide ligands to bind to the G protein-uncoupled and G protein-coupled PTHR conformations (R^0 and RG, respectively), membranes were prepared from transiently transfected COS-7 cells and the following assay conditions.

[3] = system: LLCPK1-B64 cells or SaOS-2 cells; experiment: cAMP screen of substituted PTHrP(1-28) analogs (% parent); type: cell-based; conditions: parent PTHrP(1-28)NH
Procedure: Alanine substitution at position 18, 22, 25 and 26 increased activity in at least one cell type. These positions were further substituted to various types of amino acids, and cAMP activity was analyzed in LLCPK1-B64 cells (FIG. 27C) or SaOS-2 cells (FIG. 27D). Cells were treated with analogs at 3×10^−9M in the presence of IBMX for 30 minutes at room temperature. Responses for each analog were normalized to the response for the parent (native) PTHrP(1-28) peptide. Alanine substitutions were A^15 to A^17 (SEQ ID NO:152-154), A^18 (SEQ ID NO:34), A^19 to A^21 (SEQ ID NO:155-157), A^22 (SEQ ID NO:39), A^23 to A^25 (SEQ ID NO:158-160), A^26 (SEQ ID NO:46), and A^27 to A^28 (SEQ ID NO:161-162). Substitutions at position 18 were A^18 (SEQ ID NO: 34), G^18 (SEQ ID NO:163), S^18 (SEQ ID NO:35), M^18 (SEQ ID NO:36), L^18 (SEQ ID NO:164), F^18 (SEQ ID NO:37), N^18 (SEQ ID NO:165), E^18 (SEQ ID NO:38), and K^18 (SEQ ID NO:166). Substitutions at position 22 were A^22 (SEQ ID NO:39), G^22 (SEQ ID NO:167), and S^22 to K^22 (SEQ ID NO:40-45). Substitutions at position 26 were A^26 (SEQ ID NO:46), G^26 (SEQ ID NO:168), S^26 (SEQ ID NO:47), L^26 (SEQ ID NO:169), N^26 (SEQ ID NO:48), W^26 to E^26 (SEQ ID NO:170-171), and K^26 to R^26 (SEQ ID NO:49-50). Substitutions at position 25 were G^25 to S^25 (SEQ ID NO:172-173), L^25 (SEQ ID NO:51), N^25 (SEQ ID NO:174), W^25 (SEQ ID NO:52), E^25 (SEQ ID NO:175), and K^25 to R^25 (SEQ ID NO:53-54). […]

[4] = biological target: T2, human PTHR, G protein-coupled conformation (RG) (Homo sapiens, UniProt Q03431); experiment: Competition binding to RG conformation of hPTHR (COS-7 membranes, GαsND, 125I-[Aib1,3,M]PTH(1-15) tracer); conditions: parent PTHrP(1-28)NH
T2 construct: expressed in transfected cells; host or cells: COS-7, transient (Fugene-6); membranes
T2 sequence (Q03431 27-593): T1 sequence (Q03431 27-593)

| Substance | screen human PIR R0 (% parent) [2] | screen human PIR RG (% parent) [4] | screen cAMP (% parent) [1] | screen cAMP (% parent) [3] |
| --- | --- | --- | --- | --- |
| E18,A22,L25,K26,L30-PTHrP(1-31) (AVSEHQLLHDKGKSIQDERRRAFLLKLIALI-OH) [E18, A22, L25, K26, L30-PTHrP(1-31)OH] | – | – | 185 % parent | – |
| E18,A22,L25,K26,N29-PTHrP(1-31) (AVSEHQLLHDKGKSIQDERRRAFLLKLINEI-OH) [E18, A22, L25, K26, M29-PTHrP(1-31)OH] | – | – | 210 % parent | – |
| E18,A22,L25,K26,N30-PTHrP(1-31) (AVSEHQLLHDKGKSIQDERRRAFLLKLIANI-OH) [E18, A22, L25, K26, N30-PTHrP(1-31)OH] | – | – | 189 % parent | – |
| E18,A22,L25,K26,S31-PTHrP(1-31) (AVSEHQLLHDKGKSIQDERRRAFLLKLIAES-OH) [E18, A22, L25, K26, S31-PTHrP(1-31)OH] | – | – | 99 % parent | – |
| E18,A22,L25,K26,V31-PTHrP(1-31) (AVSEHQLLHDKGKSIQDERRRAFLLKLIAEV-OH) [E18, A22, L25, K26, V31-PTHrP(1-31)OH] | – | – | 181 % parent | – |
| E18,L22,K26-PTHrP(1-28) (AVSEHQLLHDKGKSIQDERRRLFLHKLI-NH2) [E18, L22, K26-PTHrP(1-28)NH] | 64.4 % parent | 152 % parent | – | 264 % parent |
| E18,N22,A26-PTHrP(1-28) (AVSEHQLLHDKGKSIQDERRRNFLHALI-NH2) [E18, N22, A26-PTHrP(1-28)NH] | 53.7 % parent | 140 % parent | – | 171 % parent |

Continued, in another order:

| screen human PIR R0 (% parent) [2] | screen human PIR RG (% parent) [4] | Substance | screen cAMP (% parent) [1] | screen cAMP (% parent) [3] |
| --- | --- | --- | --- | --- |
| 84.4 % parent | 147 % parent | E18,N22,K26-PTHrP(1-28) (AVSEHQLLHDKGKSIQDERRRNFLHKLI-NH2) [E18, N22, K26-PTHrP(1-28)NH] | – | 236 % parent |
| 31.9 % parent | 132 % parent | E18,S22,A26-PTHrP(1-28) (AVSEHQLLHDKGKSIQDERRRSFLHALI-NH2) [E18, S22, A26-PTHrP(1-28)NH] | – | 119 % parent |
| 18.8 % parent | 116 % parent | E18,W22,A26-PTHrP(1-28) (AVSEHQLLHDKGKSIQDERRRWFLHALI-NH2) [E18, W22, A26-PTHrP(1-28)NH] | – | 75 % parent |
| 46.6 % parent | 149 % parent | E18,W22,K26-PTHrP(1-28) (AVSEHQLLHDKGKSIQDERRRWFLHKLI-NH2) [E18, W22, K26-PTHrP(1-28)NH] | – | 165 % parent |
